# In the supplement of paper PMC12042874:
# ± gives the uncertainty stated by the source.
# Assay: amyloid nucleation score (Sup35N fusion, yeast selection) (log enrichment); library NNK1; higher = more nucleation; inactive = no reads after selection
# Method in brief: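 Libraries of peptides of 20 random codons fused to Sup35N were expressed in psi-negative yeast and induced 24 hours with 100 μM copper sulfate. Selection was 7 days at 30°C on medium lacking adenine and uracil, and plasmid inserts were Illumina-sequenced before and after selection. Nucleation score is the DiMSum log enrichment of output over input reads, centred on the mode score of non-aggregating sequences, and sequences with under 100 input reads were left out.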
row,Substance,amyloid nucleation score
1,LRITYMSLVEYG,1.35 ± 0.69
2,LDMECYYSIYRSESNVCMWI,1.31 ± 0.93
3,AYIKNQ,-0.305 ± 0.47
4,WYKSYVITFITDTLVVDRET,2.41 ± 0.16
5,KITHLFFKSSYVIVKLLYVI,0.082 ± 0.51
6,LVSTYGEIQKLHGYLLGMLG,0.002 ± 0.42
7,AFSLR,-0.437 ± 0.57
8,NLFNYLSFD,-0.675 ± 0.49
9,DYVYHKAWKVKGTRAWKESL,-0.266 ± 1.4
10,HFPSHLVLRETERFKQLHCG,0.374 ± 0.62
11,LKSTEWSGRGFQ,0.862 ± 0.19
12,NVYLMKLDWTIKMWWA,0.638 ± 0.69
13,EKGKLCKG,-0.101 ± 0.84
14,TSRVH,0.228 ± 1.2
15,CVIKHSLRCFAIIGLSHRGG,-0.255 ± 0.97
16,VCMISAQYYLDIMMGRCNVI,0.468 ± 0.36
17,YFRYWNSLIGIKDSD,1.17 ± 0.39
18,MYRQTEGLVRFKGRGPFKVE,0.355 ± 0.4
19,NNMLAWWVSLTSSQT,0.512 ± 0.39
20,LDIVCLPKFVVWTDTV,-0.301 ± 0.56
21,DQNVAPYVSKHGVQTILKRD,-1.51 ± 1.9
22,DVAYRGSGYGFSYFYFGMFS,0.547 ± 0.5
23,YTIEYTSITVIVCGILYNT,6.932 ± 0.05
24,MYIKRTGQTGWAVGGSRTPR,1.11 ± 0.65
25,SCEGGCAGSCGVP,-0.641 ± 1.5
26,CEWAAGRTWMKLGSSSTKTK,3.87 ± 0.12

row,Substance,amyloid nucleation score
1,GYFCGMDLCTKEGLTHYEY,-0.736 ± 0.72
2,GNSMSHASTVKVFLAQLGGD,-1.04 ± 2.1
3,TLKAVHTLTTD,2.4 ± 0.23
4,WGQTWDVFY,0.916 ± 0.46
5,TARYTGGNTNIRSGKFLVWI,0.075 ± 0.35
6,IISRRCKML,1.37 ± 0.5
7,QMSVAG,1.38 ± 0.28
8,YTCCWTVG,4.18 ± 0.08
9,LYWFAAWLATYIYAW,0.109 ± 0.48
10,HSIDLGTFDGFFKIRLSSTT,0.598 ± 0.78
11,CLSGGFMPTYKVIWRQGCYG,inactive
12,ILYFLPNFHIMLSLI,inactive
13,NGKWYLLVRGFLAWNKQRCP,-1.03 ± 2.7
14,KVSPIMDEN,0.547 ± 0.37
15,CVWMVETRQWREGFKCMPER,0.532 ± 0.97
16,TKIVFIVL,6.02 ± 0.084
17,KNFAVRWNPVTSDWFVTLSV,-0.429 ± 0.4
18,VKIKEKFKA,-0.189 ± 0.42
19,VRAELFLTLPKGTQADALAV,-0.166 ± 0.67
20,NDGPNSIIYFYMIFI,4.58 ± 0.12
21,SNCGWRIFKEM,-1.35 ± 2.1
22,NCFRFCRQLLTAEDDVMCLP,0.117 ± 0.81
23,HYFPVIDQAICFDSFRPMPV,inactive
24,RCSSGSRICAMRLLGYSSYI,-0.066 ± 0.75
25,FVVSDRGWTQALRHYPDTRM,-0.25 ± 0.34
26,MAACMYSCSMSAVEPLHTYS,0.039 ± 0.67

row,Substance,amyloid nucleation score
1,PAMAWSSSMSFRGTILLDFA,-1.44 ± 2.7
2,WVPGITVKMRYGPESIVDWR,0.565 ± 1.1
3,LGGAWLSNEDMVGYKNLH,1.44 ± 0.41
4,YSVDKIAYFGINKCRTVLWE,1.09 ± 0.52
5,ARIMFVPWSLNDLWLGRFSM,-0.263 ± 0.45
6,LAWSEYLMCLTRCHPIAV,0.414 ± 0.54
7,YNSETSPVCYELTCESFCIV,-1.23 ± 2.4
8,FASVTTIFFPSPLFFDIRWD,1.09 ± 0.79
9,CWLRIGSSFRRARSGWTCDS,-0.834 ± 0.91
10,TCTYVYFLCSSIYARNITFM,8.838 ± 0.057
11,YYFSVYQFCGGVFGSRDCLE,6.711 ± 0.05
12,INQLRITWLD,2.46 ± 0.12
13,WTCMKSFVMWQSLDFVHFIA,0.85 ± 0.98
14,AVDMTWYIVVSMLHMLDASV,1.26 ± 0.76
15,YAIRHLKIGSGWWSLWMSSM,-0.522 ± 0.34
16,TLTYPMCGSIG,1.09 ± 0.47
17,RASKFGLLGHMAYSIYHYVM,-0.974 ± 1.7
18,NCVTL,inactive
19,KLSGMIAEMRAGPCTYRILY,-0.511 ± 0.45
20,IALNRMFSISLVFYDKGFWY,inactive
21,FIWECGNIISVCMRIGYMKA,1.23 ± 0.41
22,RNGSSMGPLSM,-0.258 ± 0.71
23,TTSPGSNSRDPAGMMIT,0.38 ± 0.32
24,RILVVNWVYPSTMNGVSQWS,2.63 ± 0.2
25,FNWLTTEFRW,-0.037 ± 0.36
26,MKAVELSPLKYTCLAN,0.313 ± 0.74

row,Substance,amyloid nucleation score
1,NCLDGGMFRYIKVYRSRYSS,0.209 ± 0.2
2,NMDSNAIGGGGNGGVRLQSR,-0.76 ± 0.55
3,SASLS,0.396 ± 0.71
4,YCLFNLESG,0.315 ± 0.53
5,EYFMRGLLWLI,0.795 ± 0.39
6,NDTLGSCLDNSLQSGSWWLR,0.276 ± 0.39
7,LQNIFLKACDWLGCWDVDVM,-0.149 ± 0.93
8,LSMKSHFWKMMFTGNWSYVC,inactive
9,LMPLLS,0.025 ± 0.36
10,RYVGLGGFM,-0.655 ± 0.46
11,TSGHNVIPRGTVSSVVRILY,-0.498 ± 0.36
12,CSGSTRVKHFHRFFTNWLLM,0.323 ± 0.63
13,RCLRTALCISMSGWCSYSNW,1.27 ± 0.15
14,VFMSIRMWAFDLLYVSCGLA,-0.808 ± 0.42
15,GAGRNSWRCCNLLFSEDMIG,2.79 ± 0.088
16,AVRVTLKL,1.31 ± 0.2
17,LKEFISCGPGCINWLHGKDW,-0.519 ± 0.37
18,TGKSRDNRNVDGNL,0.063 ± 0.38
19,TRYSTSISGC,0.332 ± 0.69
20,YDFVIFLGHDACEIYCFLRS,0.935 ± 0.56
21,WRVSMFGLSESLDRLPCKDL,-0.371 ± 0.45
22,YIPFGLIYHGKLG,-0.969 ± 2.1
23,DHGGVVPSNPGYNMARSLRF,0.465 ± 0.46
24,VLDEYFCNLC,5.989 ± 0.058
25,RDLAPVLRYVPNESKAGVGV,-0.626 ± 0.53
26,KVYIIFVRGEDAFKLRGAAN,-0.529 ± 1.5

row,Substance,amyloid nucleation score
1,CSLIIFAYRRLEFMILFYFD,-0.26 ± 0.49
2,RLCAQ,0.592 ± 0.81
3,ILKATHGSHDIYPAWNGRIS,3.2 ± 0.12
4,VWNNKECANFDNIWATLLIV,inactive
5,ITYKSFYHIQCFSGTSCKRF,3.1 ± 0.11
6,KRYDLRLKMMTTPI,1.29 ± 0.41
7,YLGRVSFIGHFVVTVSGSSQ,1.1 ± 0.21
8,HQEAGLGSMVQTNAHATAKP,-0.081 ± 1
9,DVKFVVFSNRAWVCTSASKW,4.01 ± 0.11
10,TRLKFGGSKHESSQT,1.18 ± 0.43
11,YHNCDKDAANLFYCQ,2.01 ± 0.47
12,DQSILRLYAWALRPGELELR,3.15 ± 0.14
13,SLPITLLPKGFATKVFVRVC,-0.127 ± 0.72
14,SLQTTWLKNLGDLSSSREAS,-0.121 ± 0.73
15,IKVQASQDP,9.252 ± 0.05
16,TDWFSSMLEN,0.291 ± 0.3
17,QDGPIIFWDMVYFSFYFKH,-0.925 ± 1.2
18,LLSLNEMYMTLMGGTVPRVG,-0.076 ± 0.56
19,RAGTLLPVLLDKVKRCSKLW,0.222 ± 0.7
20,VVISMTTMKVFMLVYTMDFM,0.046 ± 0.21
21,PDRRQSN,inactive
22,FLGMAHLCHEEGVRKLGGES,0.679 ± 0.64
23,FNQINQGCRGCKQRTLVPDI,0.5 ± 0.67
24,GNFMRLRWNVKFL,-0.016 ± 0.72
